Data published in patent US20240191211A1, “BIOLUMINESCENCE-TRIGGERED PHOTOCATALYTIC LABELING” (Promega Corporation, priority 2022, published 2024).

Experiments:
[1] = system: VS-HiBiT peptide; assay: Complementation affinity with VS-HiBiT peptide; assay type: binding; settings: versus HaloTag-LgBiT configuration
Text: Such configuration offers a modality agnostic approach for proximity between the photocatalytic complex and protein of interest genetically fused to HiBiT as well as greater spatial control over photocatalytic reactivity. First, the properties of the bioluminescent complementation reporter comprising VS-HiBiT peptide and either HaloTag-LgBiT or LgBiT-HaloTag were compared (FIG. 23 A-C). To determine complementation affinity, equal volumes of VS-HiBiT peptide serially diluted in TBS+0.01% BSA to final concentrations of 200-0 nM and HaloTag-LgBiT or LgBiT-HaloTag diluted in TBS+0.01% BSA to a final concentration of 0.2 nM were combined in wells of a white 96-well plate and mixed for 30 minutes. Following a 3-minutes treatment with either 10× furimazine or fluorofurimazine at a final concentration 20 M, bioluminescence was measured on a GloMax® Discover plate reader (Promega), and binding affinity (Kd) was derived from a saturation binding curve of luminescence against VS-HiBiT concentration (FIG. 23A). […] Following a 3-minutes treatment with either 10× furimazine or fluorofurimazine at a final concentration 20 M, raw luminescence (Total RLU; FIG. 23B) or filtered luminesces of donor (e.g., 450 nm/8 nm BP) and acceptor (600 nm LP) emissions were measured on a GloMax® Discover plate reader (Promega). […]

[2] = Brightness and BRET efficiency to a bound HaloTag TMR-fluorescent ligand; assay type: biochemical; settings: versus HaloTag-LgBiT configuration, complemented with VS-HiBiT
Text: The efficiency of bioluminescence-triggered catalyst activation depends on the emission intensity of the luciferase energy donor, spectral overlap between luciferase emission and catalyst excitation, proximity between the luciferase and catalyst, and capacity of the complex to adopt a conformation favorable for efficient energy transfer between the two. First, the influence of the NanoLuc-HaloTag fusion orientation on the efficiency of bioluminescence resonance energy transfer (BRET) to a bound HaloTag TMR-fluorescent ligand was tested. To this end, fusions either untethered or tethered to a HaloTag TMR-fluorescent ligand were diluted in TBS+0.01% BSA to a final concentration of 6.6 nM and then treated with 10× fluorofurimazine at a final concentration of 20 M. Following 3 minutes incubation, raw luminescence (Total RLU) or filtered luminesces for donor (e.g., 450 nm/8 nm BP) and acceptor (600 nm LP) emissions, respectively were measured on a GloMax® Discover plate reader (Promega). BRET ratios were further calculated for each sample by dividing the acceptor emission value by its donor emission value. While both orientations delivered equivalent brightness one of them NanoLuc-HaloTag provided greater BRET efficiency (FIG. 16A), which is likely due to greater proximity between NanoLuc's substrate binding site and the bound fluorescent ligand. […]

B1: VS-HiBiT/LgBiT-HaloTag: bioluminescent complementation reporter comprising VS-HiBiT peptide and LgBiT-HaloTag (protein)
chain: MVFTLEDFVGDWEQTAAYNLDQVLEQGGVSSLLQNLAVSVTPIQRIVRSGENALKIDIHVIIPYEGLSADQMAQIEEVFKVVYPVDDHHFKVILPYGTLVIDGVTPNMLNYFGRPYEGIAVFDGKKITVTGTLWNGNKIIDERLITPDGSMLFRVTINSMAEIGTGFPFDPHYVEVLGERMHYVDVGPRDGTPVLFLHGNPTSSYVWRNIIPHVAPTHRCIAPDLIGMGKSDKPDLGYFFDDHVRFMDAFIEALGLEEVVLVIHDWGSALGFHWAKRNPERVKGIAFMEFIRPIPTWDEWPEFARETFQAFRTTDVGRKLIIDQNVFIEGTLPMGVVRPLTEVEMDHYREPFLNPVDREPLWRFPNELPIAGEPANIVALVEEYMDWLHQSPVPKLLFWGTPGVLIPPAEAARLAKSLPNCKAVDIGPGLNLLQEDNPDLIGSEIARWLSTLEISG
modifications: left off: large carriers
[1]
  complementation affinity, fold higher: 3 fold
[2]
  BRET efficiency, fold greater: 1.5-2 fold
